According to a protein production outcome set (Wang et al. 2014):

Experiment: label from the status in PepcDB records

Sequence: MSKKSVLITSLMLFSMFFGAGNLIFPPMLGLSAGTNYLPAILGFLATSVLLPVLAIIAVVLSGENVKDMASRGGKIFGLVFPIAAYLSIGAFYALPRTGAVSYSTAVGVDNALYSGLFNFVFFAVALALSWNPNGIADKLGKWLTPALLTLIVVLVVLSVAKLDGTPGEPSSAYAQQPAGAGLLEGYMTMDAIAALAFGIVVISAFKYQKVNKVRTATVVSAFIAGILLALVYLGLGSIGQVVNGEFADGTAILNYAALSTMGQAGRIMFVAILILACMTTAVGLISATSEFFNSLLPGVKYHVWATVFALISFGVATMGLDTVLAVAAPVISFIYPSAITLVFLSLIEPLLFRLKWTYLFGIWTAVVWALFMSIPALNPFIEWAPLHSMSLGWVVPVLVASAIGLAIDWNKKGAQSVAKKESISV
- protein production: failed

Sequence: MQLMRFDKPIGTLLLLHPTLWALFAAAGGIPSSSILIIFILGVIVMRAAGCVINDYADRHIDGKVKRTSQRPLATGRVTTVEAKVLFFVLLIIAFLLDLSLNQYAFLLSFVAVALAVIYPFMKRFTHLPQVVLGMAFGWAIPMAYGAVIEDLPLTCWLLFLANILWTVAYDTQYAMVDRDDDLRIGVKSTAILFAQYDNKIIALLQFLSLILFILFGWLSEYHIGYFIVLALTSTLFIYQCWLTKQRVREQCFKAFLNNNYFGFGIFIAILVGIYGF
- protein production: failed

Sequence: MGLFLEDLAVGDRFDSARHRVEAAAIKAFAGEFDPQPFHLDEEAARHSLFGGLAASGWHTAAITMRLLVTSGLPLAQGIIGAGTELSWPNPTRPGDELHVETTVLAITPSKSRPDRAIVTCQSDTLNQRGEVVQRSTAKVVVFRRPLEHHHHHH
- protein production: not failed

Sequence: MMKIYLIEHVIGAVAYDENGNIVDYITNPRDLGKITEELLNNEKGIPFSATVELLKKVNPQEVVVENEAEVPKLQALGYRVSYEPYSKVSRIFRESLPKVAIDIKFASNEEDYYNFLHELSLEYTRRKLRSAAQKRDLLAIQAVRAMDDIDKTINLFSERLREWYSIHFPELDKLIEDHEEYATIVSRFGDRGFLTIDSLKELGFNEQRINRILDAAKKSIGADISEDDLSAMRMIANTILDLYNIRRNLNNYLEGVMKEVAPNVTALVGPALGARLLSIAGSLDELAKMPASTIQVLGAEKALFRALRSGGRPPKHGIIFQYPAIHTSPRWQRGKIARALAAKLAIAARVDAFSGRFIGDQLNEQLKKRIDEIKEKFAQPPPKKPQQQKPQQPQKQQAKGKKGGKRRGKRK
- protein production: failed

Sequence: MEIEQQQPLPSERGLSPVARRALIGAITGCFVLGGVLMLLPPAGREPAAPPAPAAGPMAGPVAQAKAAVGAGVPVALPALAALVTDHETHLRAHPRDARSWAVLGAAYVAQGKGTADAAYFPKAEEALRTSLNVAPRRNAEALGALAALANARGDYREAKQWGEAAVKMAPKQWPAYAQLIDAYDGLGDYKATGKTLDKLLGLRAGPAAAARAAQVYRARGWREDAAAAIADATARAGSPAEQAVYWQQAGELAWERGEPEQALRYFETALRTDPDRHAALAGQGRALAALGRTSDAVNAYRAALAKQPLAAYAVELGELYESQGLGGAAQVQYYLVRERVRQDAAGGVNNRLVVGQFEADHGDAEVAVRELREEWKRQPSIRVADALGWALHRAGQDQEALGFATKAMDKEHGGGVRSALYAYHRGEIERALDQLAPARRHLAEALRINPHFSPWFAPMAKETLAELGEPPAEGLPGDEEVEAAEAEAAEAAEAAQTPEAAESVDPAQTEQVPPPGASTPVPQEPEAR
- protein production: failed

Sequence: MITVVKRNGRIEPLDITKIQKYTKDATDNLEGVSQSELEVDARLQFRDKITTEEIQQTLIKTAVDKIDIDTPNWSFVASRLFLYDLYHKVSGFTGYRHLKEYFENAEEKGRILKGFKEKFDLEFLNSQIKPERDFQFNYLGIKTLYDRYLLKDANNNPIELPQHMFMSIAMFLAQNEQEPNKIALEFYEVLSKFEAMCATPTLANARTTKHQLSSCYIGSTPDNIEGIFDSYKEMALLSKYGGGIGWDFSLVRSIGSYIDGHKNASAGTIPFLKIANDVAIAVDQLGTRKGAIAVYLEIWHIDVMEFIDLRKNSGDERRRAHDLFPALWVCDLFLKRVLEDAMWTLFDPYECKDLTELYGQDFEKRYLEYEKDPKIIKEYINAKDLWKKILMNYFEAGLPFLAFKDNANRCNPNAHAGIIRSSNLCTEIFQNTAPNHYYMQIEYTDGTIEFFEEKELVTTDSNITKCANKLTSTDILKGKPIYIATKVAKDGQTAVCNLASINLSKINTEEDIKRVVPIMVRLLDNVIDLNFYPNRKVKATNLQNRAIGLGVMGEAQMLAEHQIAWGSKEHLEKIDALMEQISYHAIDTSANLAKEKGVYKDFENSEWSKGIFPIDKANNEALKLTEKGLFNHACDWQGLREKVKANGMRNGYLMAIAPTSSISILVGTTQTIEPIYKKKWFEENLSGLIPVVVPNLNVETWNFYTSAYDIDAKDLIKAAAVRQKWIDQGQSLNVFLRIENASGKTLHDIYTLAWKLGLKSTYYLRSESPSIDEKSVLDRSVECFNCQ
- protein production: failed

Sequence: MEELSAAEPGPEPGPEPESAPESESEPGPAGAGDAPGDGVIVTRALTKRYRGGQLAVDGLDLTVPAGSVFGFLGPNGSGKTTTIRMLMGLIEPTSGTARVLGRPMPRSARTVLPHIGALIEGPALYGFLSGRDNLLRYDAADPTADPRTRRTRVAATLDRVGLTAAAGKKAKAYSLGMKQRLGLAAALLQPRRLLVLDEPTNGLDPQGMREIRSLVRELASDGTTVFLSSHLLDEIEQVCTHAAVMAQGRLITQGAVADLAAGARGRLVVTTPDVTDAARVLKEQGVADIVVAEDRVTGEPPDGELAELNAALVTAAVRVRGFGVERASLEDAFVALTGEGFDVAGLEHHHHHH
- protein production: failed

Sequence: MVVRSLSVVGLGPAGAGAAAAASRLGVKPVIYEAMEKPGLKPCGRGLPIVDGGLPVSIPRDSILRRIRGARMYVDGEFLFEMKGFLDGYIVDKTVMLEAIAVEAGGEIHYRAKYKPGSSTVRLPGGGEARVEQGVFAGGHPYYGGAKIAAVQWIMKTGPRSDPVGDMLEIHFDTELLGYAYIFPKEEGFIEVGIGGFATPRELRERLESFIHKRSDLRELERVKLEGARIAIGGLDLGVVDGLVKAGEAAGFVLPLTGEGIRPSLISGYEAASALIEGGSPLEKLRSLPIARAVSMQKRILDLVAGMSVEERRSLLKSLTPRAHAEIALGMFRKHILLKELARSPRALSLLGLVTRLI
- protein production: failed

Sequence: MDSPKRGGPRVRPSFVFCTRTCFPTPPDRMSDSESADPHSPSPTGDGQDTEPRDADGHEVARRGDTEAMEGLLEQGMDPNHTNEHGHSLLMIAAYSDQPEMADLLIEHGADPNRSDPSGSTPLMGCCFKGLAEAAEVLIEAGADVNATGARGATALMYAATYGESALVDLLLEHGADPTTTNEQGQTAAEQAAAEGHEEIAERLRQATAGA
- protein production: failed

Sequence: MRIFFLIFLLAYVGGNVYIFIRTLQMLSGFSLAMKILLSVIYWLVAFSLVIAMLTRHIDMPVILSKSMFHIGSVWLVFTLYMIFALLIADVTKIFVPSLNHGFYYALGATCCLLLYGYYNYRHPQVNKIDVSLDKPIEGNGINIVAVSDVHLGYGTGKAMLKEYVDMINAQHPDLILIGGDLIDNSLTPLYKENMAEELAQLKAPLGIYMVPGNHEYISGIDESVRFLKDTPIQLLRDSVVTLPNGVQIIGRDDRSNRSRHSLPTLLKQADRSKPIILLDHQPYNLAKTDSLGIDLQFSGHTHHGQIWPISWVTDRIYEQSHGYRKWSQSHIYVSSGLSLWGPPFRIGTNSDMAVFHLNQMAK
- protein production: not failed

Sequence: MEILHFSPSSSISTIIHRPRRKIMALRDSIKTQMNLITTESVSSFRFCPCGRRHFIGAAMTSMPFLPISPSHASTSTEDLKRLRPPKPDWYEEFFAWSMNSEVESYEKEVSDYKMKLFDNLVGKAEKVLEIGIGTGPNFKYYTDIPNVSVIGIDPNAKMESYARKSATEAGLKPEEFTFVHALGESIPLEDASVDAVVGTLVLCSVTDVTQTLKEIKRILRPGGIYIFIEHVAAEDGTFLRLVQTVLDPLQQVVADGCHLTRHTGESILEARFNGGADVKKTSLSRLAYISSHVYGVAYN
- protein production: failed

Sequence: MSTTDNAFSATLEPIDTPKTTLKQRWWHIMDNWKVGIVPLPLFLLAGGLIALDCLGGKLPSDIVVMVATLAFFGFACGEFGKRLPVLGKLGAAAICATFIPSALVHYGLLPDVVIESTTKFYKSTNILYLYICCIIVGSIMSMNRTTLIQGFLKIFFPMLCGEVVGMLVGIGVGTLLGMEPFQVFFFIVLPIMAGGVGEGAIPLSMGYAALMHMEQGVALGRVLPMVMLGSLTAIVISGCLNQLGKRFPHLTGEGQLMPNRSHETRSLSESEGVSGKTDVGTLASGALLAVLLYMMGMLGHKLIGLPAPVGMLFLAVLLKLANVVSPRLQEGSQMVYKFFRTAVTYPILFAVGVAITPWQELVNAFTLTNLLVIVSTVSALVATGFLVGKKIGMHPIDVAIVSCCQSGQGGTGDVAILTAGNRMSLMPFAQIATRIGGAINVSLGLLFLSHYLA
- protein production: failed

Sequence: MAIQGSRTEGLGGYTFDDLAVVMGTYNEEEAIGTVLDDIATVTDGRAEVICVDGSSDRTPEIARDHGATVIEQEPQGYGVAVREAVLTPDRPVVVTTDCDDTYPMERLPDFLAEINDGADVVSGDRLYYGAEQMPAMNKLGNELFALLASVLMGKRVHDTTTGMRAYRREVLQKIVWTENTGLSAELLMRPLMRGYDVRERPIEYDERKGETKLDPFSGGAAIAKSIVRVALEERFRLEHHHHHH
- protein production: not failed

Sequence: MSVEIKRVDKHHCLDLVGIFIELERYYFGDKAASEQDLANYLSHQVFSEHSGVKVIAAVEHDKVLGFATYTIMFPAPKLSGQMYMKDLFVSSSARGKGIGLQLMKHLATIAITHNCQRLDWTAESTNPTAGKFYKSIGASLIREKEYYRFEGNGLNKLAKSL
- protein production: not failed

Sequence: MKNDRKARLILSIFRYGKNHMEKETFYHKVNYGIYKILNAVFVIGFFGTELQASQSISNNIILFHPYGIVVSGEATLGDEVVIRQQVTIGNKGTGEGADDCPIIGDRVDIGAGAKIIGGITIGENSKIGANAVVTKSFPANSILVGVPARNIASKAMNGLEHHHHHH
- protein production: not failed

Sequence: MSTCTLRFKNDWLKIFTCPVPSSDFLSFVGVATIDAPQHAVLSLLYDIESATEWVWKTREMRVLQELADDNEGRVVYQVVSAPWPVSDREIISRSTAYKDPETGEVFIKIESLPDFIPETSNCVRVRKLEGAWNILPLSENSCRVVFRLHIEPAGEIPSWLANIAVIDTPYHTLNNMRDMVKREKYKNPLEHHHHHH
- protein production: failed

Sequence: MAFITGAARGQGRSHAVRLAAEGADIIACDICAPVSASVTYAPASPEDLDETARLVEDQGRKALTRVLDVRDDAALRELVADGMEQFGRLDVVVANAGVLSWGRVWELTDEQWDTVIGVNLTGTWRTLRATVPAMIEAGNGGSIVVVSSSAGLKATPGNGHYSASKHGLTALTNTLAIELGEYGIRVNSIHPYSVETPMIEPEAMMEIFARHPSFVHSFPPMPVQPNGFMTADEVADVVAWLAGDGSGTLTGTQIPVDKGALKY
- protein production: failed

Sequence: MKFKTNKLSLNLVLASSLLAASIPAFAVTGDTDQPIHIESDQQSLDMQGNVVTFTGNVIVTQGTIKINADKVVVTRPGGEQGKEVIDGYGKPATFYQMQDNGKPVEGHASQMHYELAKDFVVLTGNAYLQQVDSNIKGDKITYLVKEQKMQAFSDKGKRVTTVLVPSQLQDKNNKGQTPAQKKGN
- protein production: not failed

Sequence: MSLQLLIAQVLLLLLGSLGISAAAPDLIVKHGLRALLAVALTFAVARIRPRTLLKWGTNVWIVALVLLVLVLFIGQGSQDSPGVRRWLSIAGQEFQPSEFAKLALVLQLASFFSRRGVQNKLLSATGMIIATTALVIFEPDLGTSVLTFGLGIIVMYAAGVRLFNIGGLVLALGLFSLPFVNSYLESHPYILKRWTGHQVRDDGVVTGLDQIGMAHRDLNYGGWWGQGPDGPRWEYFAAHTDMVVAAVGFSSGLLGVLTLLFAYWLIVSTALQVAQLATRIRPMSAEIHGASILAIGCMFLVVGQAFVNLAVAAGLFPVTGVPLPLVSYGFSSMLTMSVALGIIHSAMREVRRQLPVEVKMDDFVGAAADD
- protein production: failed
